In publication PMC6480712:

Molecular target: T1, human dopamine D2 long receptor (D2LR) fused C-terminally to LgBiT or SmBiT of NanoLuciferase (human), P14416
T1 chain: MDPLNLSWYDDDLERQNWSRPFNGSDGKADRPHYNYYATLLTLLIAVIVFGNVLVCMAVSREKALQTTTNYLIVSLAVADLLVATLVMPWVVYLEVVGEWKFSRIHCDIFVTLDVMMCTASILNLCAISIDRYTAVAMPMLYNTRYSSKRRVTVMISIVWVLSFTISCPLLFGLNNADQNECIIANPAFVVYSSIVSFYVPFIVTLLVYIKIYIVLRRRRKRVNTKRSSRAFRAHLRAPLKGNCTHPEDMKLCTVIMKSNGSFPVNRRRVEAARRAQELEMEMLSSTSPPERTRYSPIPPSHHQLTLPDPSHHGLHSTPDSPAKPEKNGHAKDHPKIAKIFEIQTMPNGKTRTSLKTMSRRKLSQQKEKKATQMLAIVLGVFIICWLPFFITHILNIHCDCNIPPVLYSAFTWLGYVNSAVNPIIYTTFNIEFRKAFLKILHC
Experiment: split reporter (BiFC, NanoBiT); NanoBiT in HEK293T cells co-transfected with 400 ng D2LR–SmBiT, D2LR–LgBiT and increasing native (untagged) D2LR DNA (0–600 ng), without or with 10 µM spiperone; muscarinic M1 receptor co-transfected instead as control
Settings: remark: other sources report otherwise

B1: human dopamine D2 long receptor (D2LR) fused C-terminally to LgBiT or SmBiT of NanoLuciferase, P14416-1 1-443 (receptor)
chain: T1 chain
Q: Which results are given for B1?
A: fold increase of the luminescent signal with co-transfected native D2LR (4:4:6) against none: 20 fold; fold increase of the luminescent signal with co-transfected native D2LR (4:4:6) against none, cells treated with 10 µM spiperone: 5 fold
